Experimental data reported in patent US20130243802A1 (ATLANTIC RESEARCH CENTER INSTITUTE, published 2013).

Assays:
[1] = molecular target: T1, Recombinant Mycobacterium tuberculosis HSP70 (Aalto, Eire) (Mycobacterium tuberculosis, UniProt P9WMJ9 1-625); test: CHIEF gel
T1 construct: also called mtHSP70; Mycobacteria HSP70

E. coli orthologue, dnaK = E. coli orthologue, dnaK (E. coli, UniProt P0A6Y8 2-638); test: CHIEF (counter HSP isoelectric focusing) gel
E. coli orthologue, dnaK, sequence (P0A6Y8 2-638 limits assumed): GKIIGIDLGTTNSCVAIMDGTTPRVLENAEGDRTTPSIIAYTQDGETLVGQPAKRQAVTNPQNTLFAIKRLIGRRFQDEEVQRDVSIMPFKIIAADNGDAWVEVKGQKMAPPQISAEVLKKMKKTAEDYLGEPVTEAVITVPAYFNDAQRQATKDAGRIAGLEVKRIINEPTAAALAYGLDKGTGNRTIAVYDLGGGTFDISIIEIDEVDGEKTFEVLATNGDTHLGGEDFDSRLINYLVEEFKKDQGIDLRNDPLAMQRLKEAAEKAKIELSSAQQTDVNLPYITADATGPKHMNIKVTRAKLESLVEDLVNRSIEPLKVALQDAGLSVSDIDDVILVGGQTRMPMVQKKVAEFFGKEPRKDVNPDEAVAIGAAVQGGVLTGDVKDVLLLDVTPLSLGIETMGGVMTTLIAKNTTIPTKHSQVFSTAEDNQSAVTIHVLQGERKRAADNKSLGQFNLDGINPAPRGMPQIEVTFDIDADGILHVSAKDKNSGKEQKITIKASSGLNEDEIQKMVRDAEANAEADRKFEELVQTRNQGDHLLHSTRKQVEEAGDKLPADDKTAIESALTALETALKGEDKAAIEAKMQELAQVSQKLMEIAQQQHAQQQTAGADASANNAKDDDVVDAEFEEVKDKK

T1 sequence (P9WMJ9 whole entry): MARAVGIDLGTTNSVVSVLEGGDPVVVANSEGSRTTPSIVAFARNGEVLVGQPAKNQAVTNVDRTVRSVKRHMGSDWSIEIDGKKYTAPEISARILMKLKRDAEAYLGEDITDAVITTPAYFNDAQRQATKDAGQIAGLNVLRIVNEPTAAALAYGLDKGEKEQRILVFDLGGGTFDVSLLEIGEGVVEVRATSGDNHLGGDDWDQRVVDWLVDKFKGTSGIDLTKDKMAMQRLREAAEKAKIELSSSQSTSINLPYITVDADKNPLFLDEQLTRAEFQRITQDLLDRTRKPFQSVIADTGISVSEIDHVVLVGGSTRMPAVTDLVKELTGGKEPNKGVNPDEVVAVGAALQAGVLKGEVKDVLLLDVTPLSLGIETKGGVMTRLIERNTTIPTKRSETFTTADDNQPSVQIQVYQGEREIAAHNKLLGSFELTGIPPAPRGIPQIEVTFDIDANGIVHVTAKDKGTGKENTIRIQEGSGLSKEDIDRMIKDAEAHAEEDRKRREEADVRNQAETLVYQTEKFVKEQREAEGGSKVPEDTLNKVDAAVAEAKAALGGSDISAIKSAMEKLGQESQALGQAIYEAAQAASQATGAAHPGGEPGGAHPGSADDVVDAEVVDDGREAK

Binder | binding result [1] | binding result (E. coli orthologue, dnaK)
PSQGKGRGLSLSRFSWGA (Synthetic peptide (New England Peptide)) [bMBP 100-117 peptide] | binds | 
bovine myelin basic protein (other, UniProt P02687 1-169, looked up, also called bMBP; MBP) AAQKRPSQRSKYLASASTMDHARHGFLPRHRDTGILDSLGRFFGSDRGAPKRGSGKDGHHAARTTHYGSLPQKAQGHRPQDENPVVHFFKNIVTPRTPPPSQGKGRGLSLSRFSWGAEGQKPGFGYGGRASDYKSAHKGLKGHDAQGTLSKIFKLGGRDSRSGSPMARR | binds | no binding
ARTTHYGSLPQKAQGHR (range 62-78; Synthetic candidate peptide; also called MBP peptide 1 (62-78)) [MBP 62-78 peptide] | no binding | 
